Publication PMC3478540 (Diabetes, 2012)

Biological target: GRP78 in membrane fractions of mouse liver (mouse (endogenous in liver), UniProt P20029 20-655)
Test: radioligand binding

Sequence of GRP78 in membrane fractions of mouse liver (P20029 20-655): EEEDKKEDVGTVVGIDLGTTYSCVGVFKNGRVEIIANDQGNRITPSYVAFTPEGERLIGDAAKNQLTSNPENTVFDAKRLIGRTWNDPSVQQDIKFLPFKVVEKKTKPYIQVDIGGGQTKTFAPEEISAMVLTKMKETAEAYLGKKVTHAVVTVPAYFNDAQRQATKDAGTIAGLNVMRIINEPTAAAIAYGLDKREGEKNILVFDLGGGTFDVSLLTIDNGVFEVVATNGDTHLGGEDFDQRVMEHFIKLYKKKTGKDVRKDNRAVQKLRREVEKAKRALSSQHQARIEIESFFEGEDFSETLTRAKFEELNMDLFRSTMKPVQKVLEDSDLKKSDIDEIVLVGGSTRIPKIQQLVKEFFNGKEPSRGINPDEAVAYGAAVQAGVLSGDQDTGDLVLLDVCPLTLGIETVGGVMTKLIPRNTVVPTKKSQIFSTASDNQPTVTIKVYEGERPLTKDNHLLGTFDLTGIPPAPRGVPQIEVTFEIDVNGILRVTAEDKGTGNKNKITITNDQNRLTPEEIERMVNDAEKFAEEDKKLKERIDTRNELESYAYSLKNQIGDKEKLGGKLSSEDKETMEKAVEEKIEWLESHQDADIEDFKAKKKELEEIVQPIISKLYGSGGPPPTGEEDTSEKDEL

Kd: 22.2 nM
B1: ^125I-vaspin (iodinated rhVaspin) (natural protein, human, UniProt Q8IW75 21-414, looked up)
chain: LKPSFSPRNYKALSEVQGWKQRMAAKELARQNMDLGFKLLKKLAFYNPGRNIFLSPLSISTAFSMLCLGAQDSTLDEIKQGFNFRKMPEKDLHEGFHYIIHELTQKTQDLKLSIGNTLFIDQRLQPQRKFLEDAKNFYSAETILTNFQNLEMAQKQINDFISQKTHGKINNLIENIDPGTVMLLANYIFFRARWKHEFDPNVTKEEDFFLEKNSSVKVPMMFRSGIYQVGYDDKLSCTILEIPYQKNITAIFILPDEGKLKHLEKGLQVDTFSRWKTLLSRRVVDVSVPRLHMTGTFDLKKTLSYIGVSKIFEEHGDLTKIAPHRSLKVGEAVHKAELKMDERGTEGAAGTGAQTLPMETPLVVKIDKPYLLLIYSEKIPSVLFLGKIVNPIGK
modifications: 125I-iodinated, residues not stated
